The results in this text go back to article PMC3172200 (PLoS Biology, 2011).

Where no end group is shown, it is not given here. [ ]: non-standard residue; d: D form.

This assay concerns the target T1, recombinant wild type SEB with N-terminal His6-tag (S. aureus COL, UniProt P01552 28-266).
T1 sequence: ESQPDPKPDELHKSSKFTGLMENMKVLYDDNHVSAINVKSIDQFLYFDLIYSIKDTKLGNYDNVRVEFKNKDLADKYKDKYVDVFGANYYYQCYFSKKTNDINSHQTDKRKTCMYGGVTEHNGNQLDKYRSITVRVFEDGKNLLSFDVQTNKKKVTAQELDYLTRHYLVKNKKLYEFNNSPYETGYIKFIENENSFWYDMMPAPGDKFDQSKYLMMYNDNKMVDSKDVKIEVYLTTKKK
Briefly: western blot of SEB bound to transfected cells. The conditions noted are these: both partners purified.

On to ASPMLVAYDA (D-Ala at both termini, source: synthetic peptide) [p2TA (SPMLVAYD; CD28 8-15), form for biological assays], for which the binding result is given as “binds”.
The value for [dA]HVKGKHLCP[dA] (source: synthetic peptide) [p1TA (HVKGKHLCP; CD28 116-124), form for biological assays] was “binds”.
